Assay results: PMC5979025
One block for each molecule: values may come before it.

Tests used:
[1] = target: C-reactive protein (pCRP) (Homo sapiens) (UniProt P02741); conditions: cited from earlier work
[2] = target: T1, C-reactive protein (pentameric, biotin-labeled) (Homo sapiens), P02741; assay: ELISA; conditions: pCRP immobilized on hydrophobic surface, biotin-labeled solution pCRP, calcium required; remark: other sources report otherwise
T1 chain: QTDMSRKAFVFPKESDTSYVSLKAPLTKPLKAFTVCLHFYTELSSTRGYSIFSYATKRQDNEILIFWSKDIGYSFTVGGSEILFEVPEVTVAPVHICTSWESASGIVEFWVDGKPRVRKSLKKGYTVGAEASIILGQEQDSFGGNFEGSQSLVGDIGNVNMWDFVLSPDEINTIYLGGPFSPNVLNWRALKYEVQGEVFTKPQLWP

Molecule: C-reactive protein (pCRP) (from UniProt P02741)
- Kd [1]: 20 µM

- Kd [2]: 0.0015 µM
B1: C-reactive protein (surface-immobilized intermediate, CRPi), P02741 (protein)
chain: T1 chain
